# B1: ScMNN2(M1-S36)_Fam20c(D93-R584)_FLAG (protein)
# chain: MLLTKRFSKLFKLTFIVLILCGLFVITNKYMDENTSDFSSDPSSNLSSHSLEKLPPAAEPAERALRGRDPGALRPHDPAHRPLLRDPGPRRSESPPGPGGDASLLARLFEHPLYRVAVPPLTEEDVLFNVNSDTRLSPKAAENPDWPHAGAEGAEFLSPGEAAVDSYPNWLKFHIGINRYELYSRHNPAIEALLHDLSSQRITSVAMKSGGTQLKLIMTFQNYGQALFKPMKQTREQETPPDFFYFSDYERHNAEIAAFHLDRILDFRRVPPVAGRMVNMTKEIRDVTRDKKLWRTFFISPANNICFYGECSYYCSTEHALCGKPDQIEGSLAAFLPDLSLAKRKTWRNPWRRSYHKRKKAEWEVDPDYCEEVKQTPPYDSSHRILDVMDMTIFDFLMGNMDRHHYETFEKFGNETFIIHLDNGRGFGKYSHDELSILVPLQQCCRIRKSTYLRLQLLAKEEYKLSLLMAESLRGDQVAPVLYQPHLEALDRRLRVVLKAVRDCVERNGLHSVVDDDLDTEHRAASARDYKDDDDK
# B2: Fam20c(M1-R584)_FLAG (protein)
# chain: MKMMLVRRFRVLILMVFLVACALHIALDLLPRLERRGARPSGEPGCSCAQPAAEVAAPGWAQVRGRPGEPPAASSAAGDAGWPNKHTLRILQDFSSDPSSNLSSHSLEKLPPAAEPAERALRGRDPGALRPHDPAHRPLLRDPGPRRSESPPGPGGDASLLARLFEHPLYRVAVPPLTEEDVLFNVNSDTRLSPKAAENPDWPHAGAEGAEFLSPGEAAVDSYPNWLKFHIGINRYELYSRHNPAIEALLHDLSSQRITSVAMKSGGTQLKLIMTFQNYGQALFKPMKQTREQETPPDFFYFSDYERHNAEIAAFHLDRILDFRRVPPVAGRMVNMTKEIRDVTRDKKLWRTFFISPANNICFYGECSYYCSTEHALCGKPDQIEGSLAAFLPDLSLAKRKTWRNPWRRSYHKRKKAEWEVDPDYCEEVKQTPPYDSSHRILDVMDMTIFDFLMGNMDRHHYETFEKFGNETFIIHLDNGRGFGKYSHDELSILVPLQQCCRIRKSTYLRLQLLAKEEYKLSLLMAESLRGDQVAPVLYQPHLEALDRRLRVVLKAVRDCVERNGLHSVVDDDLDTEHRAASARDYKDDDDK
# How the values were obtained:
# FLAG_SERPINB14_HiBiT = target: T1, FLAG_SERPINB14_HiBiT
# T1 chain: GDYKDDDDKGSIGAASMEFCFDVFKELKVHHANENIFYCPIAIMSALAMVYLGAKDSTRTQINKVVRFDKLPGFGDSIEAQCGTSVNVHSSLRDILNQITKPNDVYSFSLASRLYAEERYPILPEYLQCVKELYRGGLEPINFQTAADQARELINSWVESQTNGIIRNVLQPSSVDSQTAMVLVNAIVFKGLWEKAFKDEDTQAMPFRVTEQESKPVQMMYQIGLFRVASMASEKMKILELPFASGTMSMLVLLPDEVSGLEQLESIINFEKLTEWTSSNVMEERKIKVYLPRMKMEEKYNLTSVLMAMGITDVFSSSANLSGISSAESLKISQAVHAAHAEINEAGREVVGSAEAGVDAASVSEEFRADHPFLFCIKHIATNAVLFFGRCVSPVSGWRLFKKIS
# [1] = target: T2, bovine αS1 casein (variant C) (no signal peptide)
# T2 chain: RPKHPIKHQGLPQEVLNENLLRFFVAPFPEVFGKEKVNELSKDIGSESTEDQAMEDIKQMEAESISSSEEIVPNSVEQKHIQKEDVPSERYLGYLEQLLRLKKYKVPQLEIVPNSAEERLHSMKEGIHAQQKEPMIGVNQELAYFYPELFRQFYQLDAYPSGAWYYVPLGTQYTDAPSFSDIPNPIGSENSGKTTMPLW
# [2] = target: T3, bovine β casein (variant A2) (no signal peptide)
# T3 chain: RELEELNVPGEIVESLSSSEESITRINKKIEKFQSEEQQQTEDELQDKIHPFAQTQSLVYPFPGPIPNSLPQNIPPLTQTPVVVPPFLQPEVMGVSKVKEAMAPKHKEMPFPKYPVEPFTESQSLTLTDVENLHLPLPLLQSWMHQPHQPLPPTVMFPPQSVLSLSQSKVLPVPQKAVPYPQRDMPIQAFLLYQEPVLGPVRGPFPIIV
# [3] = target: T4, bovine αS2 casein (no signal peptide)
# T4 chain: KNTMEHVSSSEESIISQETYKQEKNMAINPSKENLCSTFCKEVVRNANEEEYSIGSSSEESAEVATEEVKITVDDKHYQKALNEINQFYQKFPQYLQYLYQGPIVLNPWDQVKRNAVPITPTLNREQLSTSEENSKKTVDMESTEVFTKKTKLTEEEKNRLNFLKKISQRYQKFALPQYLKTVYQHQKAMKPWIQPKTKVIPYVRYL
# [4] = target: FLAG_TRX_SPP1 (G158-N314)_HiBiT
# Sequence of FLAG_TRX_SPP1 (G158-N314)_HiBiT (chain, as listed by the source): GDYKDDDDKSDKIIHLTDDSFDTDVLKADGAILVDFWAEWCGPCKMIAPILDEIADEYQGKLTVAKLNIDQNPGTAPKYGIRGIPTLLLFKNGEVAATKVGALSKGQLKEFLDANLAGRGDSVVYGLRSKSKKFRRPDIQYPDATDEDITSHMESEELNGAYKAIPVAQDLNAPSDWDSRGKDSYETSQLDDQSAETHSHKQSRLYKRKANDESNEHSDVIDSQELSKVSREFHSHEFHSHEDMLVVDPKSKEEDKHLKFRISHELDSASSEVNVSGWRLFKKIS
Protein,phosphorylation sites detected by LC-MS/MS after co-expression in Pichia pastoris (FLAG_SERPINB14_HiBiT),phosphorylation sites detected by LC-MS/MS after co-expression in Kluyveromyces lactis [1],phosphorylation sites detected by LC-MS/MS after co-expression in Kluyveromyces lactis [2],phosphorylation sites detected by LC-MS/MS after co-expression in Kluyveromyces lactis [3],Phosphorylation [4]
B1,"T92, S99, S165, T202, S206, S222, S271, and S345","S56, S61, S63, T64, S79, S81, S82, S83, S90, S103, and S130","S30, S32, S33, S34, S37, T39, S50, at T56","S23, S24, S25, S46, S52, S71, S72, S73, S76, T145, S146, S150, S158, and T159",Yes
B2,,"S61, S63, T64, S79, S81, S82, S83, S90, S103, and S130","S30, S32, S33, S34, T39, S50, and T56","S24, S25, S46, T145, S146, S150, S158, T159, and T163",

# — patent publication US20260176314
